The source of these data is US20180355013A1.

This assay deals with NKG2D ligands on NKG2D ligand-expressing cells. The assay can be described thus: summary of the Examples; assay not given.

A value given as a limit tells only on which side of the number the result lay.

hNKG2Dx2-hIgG1 (Fc fusion) had a fold improved binding avidity against monomeric NKG2D-Fc chimeras of under 100 fold.
